Results on 13 sequences are retold here after the DeepSol protein solubility set.

The nature of the data set: soluble on expression in E. coli; label from the status in PepcDB or PDB records.
As for “MSLDKVLVGYWHNWKSTGKDGYKGGSSADFNLSSTQEGYNVINVSFMKTPEGQTLPTFKPYNKTDTEFRAEISKLNAEGKSVLIALGGADAHIELKKSQESDFVNEIIRLVDTYGFDGLDIDLEQAAIEAADNQTVIPSALKKVKDHYRKDGKNFMITMAPEFPYLTSSGKYAPYINNLDSYYDFINPQYYNQGGDGFWDSDLNMWISQSNDEKKEDFLYGLTQRLVTGTDGFIKIPASKFVIGLPSNNDAAATGYVKDPNAVKNALNRLKASGNEIKGLMTWSVNWDAGTNSNGEKYNNTFVNTYAPMLFNNEGIITITTDPNSSSVDKLAAALEHHHHHH”, the “soluble on expression in E. coli” value is “soluble”. As for “MHHHHHHSSGVDLGTENLYFQSMAWVIDKYGKNEVLRFTQNMMMPIIHYPNEVIVKVHAASVNPIDVNMRSGYGATALNMKRDPLHVKIKGEEFPLTLGRDVSGVVMECGLDVKYFKPGDEVWAAVPPWKQGTLSEFVVVSGNEVSHKPKSLTHTQAASLPYVALTAWSAINKVGGLNDKNCTGKRVLILGASGGVGTFAIQVMKAWDAHVTAVCSQDASELVRKLGADDVIDYKSGSVEEQLKSLKPFDFILDNVGGSTETWAPDFLKKWSGATYVTLVTPFLLNMDRLGIADGMLQTGVTVGSKALKHFWKGVHYRWAFFMASGPCLDDIAELVDAGKIRPVIEQTFPFSKVPEAFLKVERGHARGKTVINVV”, the “soluble on expression in E. coli” value is given as “soluble”. In the case of “MSLTMKDVALEAGVSVGTVSRVINKEKGIKEVTLRKVQRAIKTLDYIPDNYARGMKKNRTETIALIIPSIWHPFFSEFAYHVEKELLKYNYKLFICNADSDSQNEIEYIEMLKQNKVDGIIGITYSDIDKYILSDLPFVSIDRHFSENVCYVTSANYKGGQTAAEELVRRDNKHLAFIGSINMYENETILRSKGFREKAKELGVDVYNFEMKEPLINPEDQIRIFLQSHKEIDGIFTINDMMALRVISVMKELGKIAPDDYQIIGFDGLKTSVDQSYLVSTIVQDIGMMAKESVAMILKMIKREEILEKRIVIPTYFWGDKTTKKEGHHHHHH”, the “soluble on expression in E. coli” value is recorded as “soluble”.

For the sequence “MSLDFHGVFPYLVSPVDAEGRVRADVMGRLCDDLIQAGVHGLTPLGSTGEFAYLGTAQREAVVRATIEAAQRRVPVVAGVASTSVADAVAQAKLYEKLGADGILAILEAYFPLKDAQIESYFRAIADAVEIPVVIYTNPQFQRSDLTLDVIARLAEHPRIRYIKDASTNTGRLLSIINRCGDALQVFSASAHIPAAVMLIGGVGWMAGPACIAPRQSVALYELCKAQRWDEALMLQRKLWRVNEAFAKFNLAACIKAGLALQGYDVGDPIPPQAALTAEERKAVEKVLAEIAEGHHHHHH”, the “soluble on expression in E. coli” value is recorded as “soluble”. As to “GQDQRRRRIVSRRIYKRIMLKPHYLSIPEAQLEAMNNIQLNPIMKLINNNSDSPVMLSSPPDIFTAGKDMFDCFFRDIEAARHHVHIQFYVIEDDHLGSRLSDLLIRKVQEGVKVRVIFDHVGSWATGRGYWKRLRRAGVEAYPFMPVFFPILSSRVNYRNHRKVAVIDGKIGYLGGMNVADRYYSGNRLGLWRDTHFRMMGNVVAGLQSSFLLDWYVVSRRVINLSGYYPDLPIPVSDEGVKIQLVRSGPVGQWRTIEQATIYCIERACEHVYIETPYFLPTEGLN”, the “soluble on expression in E. coli” value was “not soluble”. Next, “MAHHHHHHMGGCVVSLMECKARSNEVPWELSEDVKSYGPLSVAVAGTQTPNSSAVYVNGKQSTLAAQQECGKQFYYGPNQPQRFAKLCQENLDSVALAYRRIEKMEKEQVAGASRPMDVAYFSEQCNLTYRELWHAVTGFSRGLAELGLEKRVNVTIYEETRWEWLASIYGIWMQDMVAATVYANLGEGALFHALRETECKAILCNGKSVPNLLRGVGSGAFPACTLIYLDNLPVAGCAELHGCRVVSWKDVVALGHGAGAHHGAAPPEDNESVALIMYTSGTTGDPKGVMHTHGSIVAGILTMDDWLYSVIKHRPDDVYLSYLPMAHIMEFGVVNILLARRAHVAFGTPRTLTDATARPHGDFTHFRPTLLIGVPRIFDTLKKAVEAKLPPVGTLKRQVFDHAYQSRLAALKEGKDTPFWNEKVFSQPRAALGGRVRAFLSGGGPLSETTQEFVNVVFGCIVNGWGLTETVCIGAIQRLGDLTPSAVGQVLCSEQLKLRDIDEYKHTDTPYPRGEICLRGPFLFKGYYKQPELTREVLDEDGWFHTGDVGSIDCEGRVSIVGRIKALAKNCLGEYIALEVLEAVYSSHPLVLHNCVCVLVDPCKNYICALVLTDESHVMRFAKANGIEGEYPSLLEKKELLEKAAASMAETARAARRRDFEVVRRVSLIDDEWSPEKGQLTAALKLRRGAIAKQYEKQITCLFAE”: “not soluble”; “NTATVITVGNYKGGAGKTTNVVLLAYKLAKKGLKVCVLDLDPQSNATKSLLLTKSSLYQDEVVTIEKTLMTGISEKNLDGLEVKIMDNLYLLPSYIDFEDFPKYLYKNTSNQREEDYYLKNIFTPLQGKYDIVLIDVPPMSKAVTRNAVICSDYVLISLQTHERSLSGAESYVEELNKLHNEYDLDLEVVGVLPVIHKNNGSVDQYVMEVAKETFGEDNLFENVVPQMERIKRFDVNGITDKDRHDQKVLNLYDKVSDELLDRINYFEEEKEGAIN”: “not soluble”. Consider “MFPSSEVEAKRTTLNLELESNTDRLLQEKDDLLPQSVTNSSDEGTPFAQVEGASDDNTAEQDSDKPGASVADADTKPVDPEWKTITVASGDTLSTVFTKAGLSTSAMHDMLTSSKDAKRFTHLKVGQEVKLKLDPKGELQALRVKQSELETIGLDKTDKGYSFKREKAQIDLHTAYAHGRITSSLFVAGRNAGLPYNLVTSLSNIFGYDIDFALDLREGDEFDVIYEQHKVNGKQVATGNILAARFVNRGKTYTAVRYTNKQGNTSYYRADGSSMRKAFIRTPVDFARISSRFSLGRRHPILNKIRAHKGVDYAAPIGTPIKATGDGKILEAGRKGGYGNAVVIQHGQRYRTIYGHMSRFAKGIRAGTSVKQGQIIGYVGMTGLATGPHLHYEFQINGRHVDPLSAKLPMADPLGGADRKRFMAQTQPMIARMDQEKKTLLALNKQR”, for which the “soluble on expression in E. coli” value is “not soluble”. Turning to “MSLKKDYGSQEDFTQVWNTTMKGLKCCGFTNYTDFEDSPYFKENSAFPPFCCNDNVTNTANETCTKQKAHDQKVEGCFNQLLYDIRTNAVTVGEGHHHHHH”, the “soluble on expression in E. coli” value is recorded as “soluble”.

For “MSLRDISILLAEDESELRELLHEYLQLFFGRVYAATSGDQAYDIYKQKKPDIIITDISMPNLDGLEMISKIRESDKETKIIVMSAHSEQERLLLAIKLNLESYLIKPIKTEALKTILLDIVKHLREKSRRTYVTENIYWEHETNTLWGNSKEIKLRKMESMLLKLLFSRPNEIFSTKEIFDYLHETKNDKEFSVHAVTSLMKRLRAKLPNEVIHNIYGSGYKIIPIEGHHHHHH”, the “soluble on expression in E. coli” value is “soluble”. As for “MSEKLVLSSGKCFLHEVLCRREEKEYRQNRANLRRGADTTTEVYAFPYVYPQLPQEATTQERLVLMRVAALAAEFGNIPAVGSDTPAKSLGRWAYEVSRQRMLDRQQQVAFNPKKLDVVGERLAYLHTQDFEEAVRAVSRLMSIASSLSNVPAFDYIALYSLFSYWGNGISEKSQRVRMRVLQDYYGSFGSLIE”, the “soluble on expression in E. coli” value was “not soluble”. For the sequence “MSDEAIHDIFVIGGGINGCGIARDAVGRGYSVALAEMNDFASGTSSAATKLIHGGLRYLEHYEFRLVREALMEREVLWAMAPHIIWPMRFVLPFQKGGVRPAWLVRLGLFLYDHLGGRKLLPATRSLDLRRDPAGKPLKPIFARAFEYSDGWVDDARLVVLNARDAADRGAVILNRTQVVSARREGAFWRVETKNAAGESKTYRARMLVNAAGPWVDKVLAATFGKNNVHNVRLVQGSHIIVRKKFADPRAYFFQNPDGRIIFAIPYEQDFTLIGTTDRDYTADPRAVKISDEEISYLCNAASEYFAEPVKPADIVWTYSGVRPLFDDGASKAQEATRDYVLKTEGAEGEAPLLNIFGGKLTTYRRLAEHALEKIGDALGEKGTPWTAGSHLPGGNFGAEAYAEEVKALRSRYPFLDRRHAERLVRCYGTDAVAIIGAAADTTALGRHFGGTLYEAEVRWLMAREWALTAEDILWRRTKQGLFLTPEEVLGLTDYIDDIAGGRLKAILEHHHHHH”, the “soluble on expression in E. coli” value was “soluble”. With “MTRTELTQYLADFLRVSAFKDYAPNGLQVEGKAEIRTIVTGVTACQALIDEAIRLKADAILVHHGFFWKSEPEVITGMKQRRIKALLAHDINLFGYHLPLDAHPMLGNNATLGRKLGILDAEAVEDVAQGLVWRGKLDLPMSASEFAAMLAEVLGRDPLHIGESSDEIQYLAWCTGGAQDYIDVAASLGVDAFISGEVSERTYHSAVEQGIHYYAAGHHATERFGIEALGRHLAREFNLVHHFVDITNPVLEHHHHHH”, the “soluble on expression in E. coli” value was “soluble”.
